Assay results as given in IntAct's records for PubMed 31515488.

B1: LIM/homeobox protein Lhx4 (Homo sapiens), Q969G2 (parent)
chain: MMQSATVPAEGAVKGLPEMLGVPMQQIPQCAGCNQHILDKFILKVLDRHWHSSCLKCADCQMQLADRCFSRAGSVYCKEDFFKRFGTKCTACQQGIPPTQVVRKAQDFVYHLHCFACIICNRQLATGDEFYLMEDGRLVCKEDYETAKQNDDSEAGAKRPRTTITAKQLETLKNAYKNSPKPARHVREQLSSETGLDMRVVQVWFQNRRAKEKRLKKDAGRHRWGQFYKSVKRSRGSSKQEKESSAEDCGVSDSELSFREDQILSELGHTNRIYGNVGDVTGGQLMNGSFSMDGTGQSYQDLRDGSPYGIPQSPSSISSLPSHAPLLNGLDYTVDSNLGIIAHAGQGVSQTLRAMAGGPTSDISTGSSVGYPDFPTSPGSWLDEMDHPPF
partner: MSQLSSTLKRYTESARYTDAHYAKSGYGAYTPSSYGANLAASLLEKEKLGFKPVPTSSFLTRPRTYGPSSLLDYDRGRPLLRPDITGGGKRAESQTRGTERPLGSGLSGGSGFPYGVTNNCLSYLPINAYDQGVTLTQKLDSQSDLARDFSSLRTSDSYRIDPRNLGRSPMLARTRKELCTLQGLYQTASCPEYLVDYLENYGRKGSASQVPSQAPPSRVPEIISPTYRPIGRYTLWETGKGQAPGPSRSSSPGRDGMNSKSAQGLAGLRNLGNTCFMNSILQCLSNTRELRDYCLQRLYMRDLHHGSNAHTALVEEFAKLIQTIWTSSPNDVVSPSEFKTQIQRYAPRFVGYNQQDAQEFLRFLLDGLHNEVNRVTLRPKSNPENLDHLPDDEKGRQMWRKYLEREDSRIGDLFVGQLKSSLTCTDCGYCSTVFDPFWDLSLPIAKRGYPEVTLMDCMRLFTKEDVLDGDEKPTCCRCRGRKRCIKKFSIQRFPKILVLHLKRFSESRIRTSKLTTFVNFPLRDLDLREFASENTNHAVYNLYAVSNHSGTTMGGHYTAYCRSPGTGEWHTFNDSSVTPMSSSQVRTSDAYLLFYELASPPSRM
B2: Endothelial transcription factor GATA-2 (Homo sapiens), P23769 (parent)
chain: MEVAPEQPRWMAHPAVLNAQHPDSHHPGLAHNYMEPAQLLPPDEVDVFFNHLDSQGNPYYANPAHARARVSYSPAHARLTGGQMCRPHLLHSPGLPWLDGGKAALSAAAAHHHNPWTVSPFSKTPLHPSAAGGPGGPLSVYPGAGGGSGGGSGSSVASLTPTAAHSGSHLFGFPPTPPKEVSPDPSTTGAASPASSSAGGSAARGEDKDGVKYQVSLTESMKMESGSPLRPGLATMGTQPATHHPIPTYPSYVPAAAHDYSSGLFHPGGFLGGPASSFTPKQRSKARSCSEGRECVNCGATATPLWRRDGTGHYLCNACGLYHKMNGQNRPLIKPKRRLSAARRAGTCCANCQTTTTTLWRRNANGDPVCNACGLYYKLHNVNRPLTMKKEGIQTRNRKMSNKSKKSKKGAECFEELSKCMQEKSSPFSAAALAGHMAPVGHLPPFSHSGHILPTPTPIHPSSSLSFGHPHPSSMVTAMG
B3: Notch homolog 2 N-terminal-like protein A (Homo sapiens), Q7Z3S9 (parent)
chain: MCVTYHNGTGYCKCPEGFLGEYCQHRDPCEKNRCQNGGTCVAQAMLGKATCRCASGFTGEDCQYSTSHPCFVSRPCLNGGTCHMLSRDTYECTCQVGFTGKECQWTDACLSHPCANGSTCTTVANQFSCKCLTGFTGQKCETDVNECDIPGHCQHGGTCLNLPGSYQCQCLQGFTGQYCDSLYVPCAPSPCVNGGTCRQTGDFTFECNCLPETVRRGTELWERDREVWNGKEHDEN
partner: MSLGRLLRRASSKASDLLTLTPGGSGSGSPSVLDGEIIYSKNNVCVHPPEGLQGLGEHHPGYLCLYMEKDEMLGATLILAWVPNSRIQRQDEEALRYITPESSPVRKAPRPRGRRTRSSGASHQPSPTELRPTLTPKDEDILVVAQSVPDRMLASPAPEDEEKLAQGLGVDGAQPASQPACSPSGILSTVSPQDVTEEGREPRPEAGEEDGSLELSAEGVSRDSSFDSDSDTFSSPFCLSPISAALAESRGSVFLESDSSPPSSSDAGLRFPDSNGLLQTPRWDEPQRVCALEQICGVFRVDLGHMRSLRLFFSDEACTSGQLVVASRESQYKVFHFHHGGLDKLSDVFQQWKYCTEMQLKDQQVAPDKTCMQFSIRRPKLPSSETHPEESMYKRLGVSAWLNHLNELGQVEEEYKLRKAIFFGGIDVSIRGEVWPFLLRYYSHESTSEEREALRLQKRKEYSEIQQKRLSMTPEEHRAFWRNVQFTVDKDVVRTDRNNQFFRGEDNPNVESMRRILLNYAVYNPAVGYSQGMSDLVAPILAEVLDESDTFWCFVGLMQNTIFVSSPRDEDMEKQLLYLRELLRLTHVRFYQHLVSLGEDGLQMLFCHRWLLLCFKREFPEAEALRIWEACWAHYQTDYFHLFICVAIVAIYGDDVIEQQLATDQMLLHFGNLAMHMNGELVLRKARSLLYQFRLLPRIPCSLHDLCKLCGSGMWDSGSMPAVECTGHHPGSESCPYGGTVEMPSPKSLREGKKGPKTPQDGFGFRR
B4: mRNA-decapping enzyme 1A (Homo sapiens), Q9NPI6 (parent)
chain: MEALSRAGQEMSLAALKQHDPYITSIADLTGQVALYTFCPKANQWEKTDIEGTLFVYRRSASPYHGFTIVNRLNMHNLVEPVNKDLEFQLHEPFLLYRNASLSIYSIWFYDKNDCHRIAKLMADVVEEETRRSQQAARDKQSPSQANGCSDHRPIDILEMLSRAKDEYERNQMGDSNISSPGLQPSTQLSNLGSTETLEEMPSGSQDKSAPSGHKHLTVEELFGTSLPKEQPAVVGLDSEEMERLPGDASQKEPNSFLPFPFEQLGGAPQSETLGVPSAAHHSVQPEITTPVLITPASITQSNEKHAPTYTIPLSPVLSPTLPAEAPTAQVPPSLPRNSTMMQAVKTTPRQRSPLLNQPVPELSHASLIANQSPFRAPLNVTNTAGTSLPSVDLLQKLRLTPQHDQIQTQPLGKGAMVASFSPAAGQLATPESFIEPPSKTAAARVAASASLSNMVLAPLQSMQQNQDPEVFVQPKVLSSAIPVAGAPLVTATTTAVSSVLLAPSVFQQTVTRSSDLERKASSPSPLTIGTPESQRKPSIILSKSQLQDTLIHLIKNDSSFLSTLHEVYLQVLTKNKDNHNL
partner: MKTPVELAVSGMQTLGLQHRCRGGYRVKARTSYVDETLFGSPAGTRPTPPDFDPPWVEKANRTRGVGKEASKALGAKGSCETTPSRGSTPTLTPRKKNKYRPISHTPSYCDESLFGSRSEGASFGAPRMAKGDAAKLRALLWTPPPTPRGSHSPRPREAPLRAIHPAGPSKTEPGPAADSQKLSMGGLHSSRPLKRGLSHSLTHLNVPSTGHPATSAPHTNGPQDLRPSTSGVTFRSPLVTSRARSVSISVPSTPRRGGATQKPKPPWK
B5: Leucine rich adaptor protein 1 (Homo sapiens), Q96LR2 (parent)
chain: MEGTVESQTPDLRDVEGKVGRKTPEGLLRGLRGECELGTSGALLLPGASSTGHDLGDKIMALKMELAYLRAIDVKILQQLVTLNEGIEAVRWLLEERGTLTSHCSSLTSSQYSLTGGSPGRSRRGSWDSLPDTSTTDRLDSVSIGSFLDTVAPSELDEQGPPGAPRSEMDWAKVIAGGERARTEVDVAATRLGSLRAVWKPPGERLQGGPPESPEDESAKLGFEAHWFWEQCQDDVTFL
partner: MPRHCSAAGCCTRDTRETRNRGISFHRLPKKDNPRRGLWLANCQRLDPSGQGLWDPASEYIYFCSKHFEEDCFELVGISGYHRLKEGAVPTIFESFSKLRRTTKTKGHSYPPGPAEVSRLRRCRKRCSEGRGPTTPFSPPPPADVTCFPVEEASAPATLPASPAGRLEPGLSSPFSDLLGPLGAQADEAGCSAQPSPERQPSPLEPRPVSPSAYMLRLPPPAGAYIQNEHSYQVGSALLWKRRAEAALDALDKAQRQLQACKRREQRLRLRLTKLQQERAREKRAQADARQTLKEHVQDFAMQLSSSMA

Variants of: B1
Conditions: with ubp2_human USP2, O75604

Row | Variant | effect of a mutation on the interaction
1 | N328S | with no effect

Variants of: B2
Conditions: with fhl3_human FHL3, Q13643
Sequence of fhl3_human FHL3, Q13643 (Q13643 whole entry): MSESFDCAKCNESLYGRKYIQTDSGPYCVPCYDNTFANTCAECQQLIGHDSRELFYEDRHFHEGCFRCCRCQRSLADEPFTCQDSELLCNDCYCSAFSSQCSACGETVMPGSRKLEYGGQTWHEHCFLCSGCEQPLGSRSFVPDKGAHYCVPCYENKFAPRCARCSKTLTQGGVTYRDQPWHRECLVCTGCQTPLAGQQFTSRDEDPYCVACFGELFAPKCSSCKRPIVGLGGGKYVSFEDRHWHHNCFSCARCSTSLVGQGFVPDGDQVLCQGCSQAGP

Row | Variant | effect of a mutation on the interaction
2 | A164T | with no effect

Variants of: B2
Conditions: with psa3_human PSMA3, P25788
Sequence of psa3_human PSMA3, P25788 (P25788 whole entry): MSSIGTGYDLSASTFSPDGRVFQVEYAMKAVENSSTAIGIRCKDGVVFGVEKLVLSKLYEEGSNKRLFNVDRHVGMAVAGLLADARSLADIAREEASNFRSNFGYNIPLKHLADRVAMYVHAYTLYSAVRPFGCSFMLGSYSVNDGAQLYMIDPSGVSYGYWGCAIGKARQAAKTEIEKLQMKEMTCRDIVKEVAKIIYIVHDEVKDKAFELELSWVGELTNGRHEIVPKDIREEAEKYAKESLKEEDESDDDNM

Row | Variant | effect of a mutation on the interaction
3 | A164T | with no effect

Variants of: B2
Conditions: with tri23_human TRIM23, P36406
Sequence of tri23_human TRIM23, P36406 (P36406 whole entry): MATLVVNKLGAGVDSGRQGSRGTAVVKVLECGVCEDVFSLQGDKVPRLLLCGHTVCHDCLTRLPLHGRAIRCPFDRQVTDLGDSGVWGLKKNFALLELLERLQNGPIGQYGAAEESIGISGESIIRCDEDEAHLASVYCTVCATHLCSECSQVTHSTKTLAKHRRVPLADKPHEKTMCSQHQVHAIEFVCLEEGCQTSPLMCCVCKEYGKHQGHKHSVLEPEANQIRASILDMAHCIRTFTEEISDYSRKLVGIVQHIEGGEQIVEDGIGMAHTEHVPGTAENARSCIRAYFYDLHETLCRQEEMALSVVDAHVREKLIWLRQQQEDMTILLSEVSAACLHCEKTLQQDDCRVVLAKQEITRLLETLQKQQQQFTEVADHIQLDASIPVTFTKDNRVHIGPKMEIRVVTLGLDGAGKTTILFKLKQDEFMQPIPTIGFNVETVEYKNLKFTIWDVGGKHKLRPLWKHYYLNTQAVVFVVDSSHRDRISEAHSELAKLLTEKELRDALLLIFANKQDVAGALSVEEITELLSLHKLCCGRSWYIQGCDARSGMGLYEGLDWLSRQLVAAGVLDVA

Row | Variant | effect of a mutation on the interaction
4 | A164T | with no effect

Variants of: B2
Conditions: with mdfi_human MDFI

Row | Variant | effect of a mutation on the interaction
5 | A164T | with no effect

Variants of: B3
Conditions: with tbc16_human TBC1D16, Q8TBP0

Row | Variant | effect of a mutation on the interaction
6 | R74Q | with no effect
7 | A115T | with no effect

Variants of: B4
Conditions: with rita1_human RITA1, Q96K30

Row | Variant | effect of a mutation on the interaction
8 | Q474H | with no effect
9 | P332T | with no effect
10 | A297G | with no effect

Variants of: B5
Conditions: with thap7_human THAP7, Q9BT49

Row | Variant | effect of a mutation on the interaction
11 | Q207R | disrupting interaction strength
12 | M60L | with no effect
